The target in test [1] is trimerization domain of human type XV collagen, XV(TD) (human). The experiment in a line: SEC.
For test [2], the target named is trimerization domain (TD) of human collagen XVIII, XVIII(TD) (human) (UniProt P39060). The experiment in a line: AUC.
The target is the same in test [3]. The experiment in a line: cross-linking.

In paper PMC3048825 one finds stoichiometry N data, which are given here for two substances.

As usually defined, the stoichiometry N is a count of units in the complex or per binding partner.

The substance “trimerization domain of human type XV collagen, XV(TD) (domain or fragment)” yielded a stoichiometry N in test [1] of 3.

For “trimerization domain (TD) of human collagen XVIII, XVIII(TD) (from UniProt P39060 1442-1496) (domain or fragment)”, the stoichiometry N amounted to 2.98 in test [2] and 3 in test [3].
